Measured values reported in US20110038941A1.

Molecular target: CD20 cell surface antigen (human) (UniProt P11836)
Assay: flow cytometry of FAM-ODN fluorescence on Raji cells

Chain of UniProt P11836 (P11836 whole entry): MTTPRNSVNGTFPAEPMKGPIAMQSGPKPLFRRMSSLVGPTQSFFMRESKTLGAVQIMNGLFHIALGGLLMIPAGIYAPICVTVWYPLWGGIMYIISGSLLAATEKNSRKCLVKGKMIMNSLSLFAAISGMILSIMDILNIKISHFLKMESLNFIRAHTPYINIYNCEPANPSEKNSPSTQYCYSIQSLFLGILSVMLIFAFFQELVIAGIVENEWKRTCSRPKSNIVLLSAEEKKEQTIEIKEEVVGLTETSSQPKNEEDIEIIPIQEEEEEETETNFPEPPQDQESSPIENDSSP

fold fluorescence intensity of FAM-ODN against FAM-ODN loaded LP and Her ILP: 10 fold | fold fluorescence intensity of FAM-ODN against free FAM-ODN: 20 fold
Substance: Rituximab (anti-CD20 antibody) conjugated cationic immunoliposomes
